This is an account of results in patent publication US20260176358A1 (JIANGSU HENGRUI PHARMACEUTICALS, published 2026).

One test concerns the target T1, human CGRP (human, UniProt P06881 83-119).
T1 peptide (looked up): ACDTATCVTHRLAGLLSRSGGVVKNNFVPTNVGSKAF
Briefly: ELISA, coated CGRP. On the procedure: (§1) In this test example, the abilities of the chimeric antibodies and humanized antibodies of C1 #, C9 #, C21 #, and C28 #to bind to human CGRP and rat CGRP were assessed using ELISAs. Plates were coated with […] human CGRP and rat CGRP, respectively, and blocked, and the antibodies, serially diluted, were then added. The plates were incubated for 1 h and washed, and a horseradish peroxidase-labeled anti-human Fc secondary antibody was then added. After incubation, color development was performed. […] The plates were incubated for 1 h and washed, and the antibodies, serially diluted, were then added. The plates were incubated for 1 h and washed, and a horseradish peroxidase-labeled streptavidin secondary antibody was then added. After incubation, color development was performed.

In another test the target is T2, rat CGRP (rat, UniProt P01256 83-119).
T2 peptide (looked up): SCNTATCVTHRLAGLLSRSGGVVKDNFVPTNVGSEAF
Kind of test: ELISA, coated CGRP. On the procedure: as §1
Background: An ELISA detects its analyte on a solid surface through an enzyme-linked reagent.

B1: C9H3L1 (antibody, human IgG1, kappa, V domains shown)
VH: EVQLVQSGAEVKKPGASVKVSCKASGYTFTDYYMNWVRQAPGQRLEWMGVINPYQGRTTYNRKFKGRVTITVDKSASTAYMELSSLRSEDTAVYYCASLLIRPHYFDYWGQGTTVTVSS
VL: DIQMTQSPSSLSASVGDRVTITCKASQNVGTNVAWYQQKPGKSPKALIYSASYRYSGVPSRFSGSGSGTDFTLTISSLQPEDVATYHCQQYNFYPYTFGQGTKLEIKR
B1: the EC50 (usually the concentration that produces a half-maximal response) turned out to be 1.3 nM with human CGRP and 4.27 nM with rat CGRP.

B2: C28H1L1 (antibody, human IgG1, kappa, V domains shown)
VH: EVQLVQSGAEVKKPGASVKVSCKASGYTFTDYYMNWVRQAPGQRLEWMGDINPNNVVTTYNQKFKGRVTITVDKSASTAYMELSSLRSEDTAVYYCASIIIVPDYFDYWGQGTTVTVSS
VL: DIQMTQSPSSVSASVGDRVTITCKASQNVGSNVAWYQQKPGKSPKALIYSASYRYSGVPSRFSGSGSGTDFTLTISSLQPEDFATYYCQQYNSYPYTFGGGTKVEIKR
For the molecule B2, the concentration for a half-maximal effect (EC50) with human CGRP was 1.34 nM; with rat CGRP it was 6.28 nM.

B3: C9H7L1 (antibody, human IgG1, kappa, V domains shown)
VH: EVQLVQSGAEVKKPGASVKVSCKASGYTFTDYYMNWVRQAPGQRLEWMGVINPYTGRTTYNRKFKGRVTITVDKSASTAYMELSSLRSEDTAVYYCASLLIRPHYFDYWGQGTTVTVSS
VL: DIQMTQSPSSLSASVGDRVTITCKASQNVGTNVAWYQQKPGKSPKALIYSASYRYSGVPSRFSGSGSGTDFTLTISSLQPEDVATYHCQQYNFYPYTFGQGTKLEIKR
As for B3, the figures for the EC50 with human CGRP and in the test with rat CGRP were 1.3 nM and 3.57 nM, respectively.

B4: C9H6L1 (antibody, human IgG1, kappa, V domains shown)
VH: EVQLVQSGAEVKKPGASVKVSCKASGYTFTDYYMNWVRQAPGQRLEWIGVINPYSGRTTYNRKFKGRATLTVDKSASTAYMELSSLRSEDTAVYYCASLLIRPHYFDYWGQGTTVTVSS
VL: DIQMTQSPSSLSASVGDRVTITCKASQNVGTNVAWYQQKPGKSPKALIYSASYRYSGVPSRFSGSGSGTDFTLTISSLQPEDVATYHCQQYNFYPYTFGQGTKLEIKR
Take B4: the EC50 with human CGRP was 1.33 nM; in the test with rat CGRP it was 3.13 nM.

B5: C9H5L1 (antibody, human IgG1, kappa, V domains shown)
VH: EVQLVQSGAEVKKPGASVKVSCKASGYTFTDYYMNWVRQAPGQRLEWMGVINPYSGRTTYNRKFKGRVTITVDKSASTAYMELSSLRSEDTAVYYCASLLIRPHYFDYWGQGTTVTVSS
VL: DIQMTQSPSSLSASVGDRVTITCKASQNVGTNVAWYQQKPGKSPKALIYSASYRYSGVPSRFSGSGSGTDFTLTISSLQPEDVATYHCQQYNFYPYTFGQGTKLEIKR
On to B5, for which the figures for the concentration for a half-maximal effect (EC50) with human CGRP and with rat CGRP were 1.29 nM and 4.48 nM, respectively.

B6: C9H2L1 (antibody, human IgG1, kappa, V domains shown)
VH: EVQLVQSGAEVKKPGASVKVSCKASGYTFTDYYMNWVRQAPGQRLEWIGVINPYNVRTTYNRKFKGRATLTVDKSASTAYMELSSLRSEDTAVYYCASLLIRPHYFDYWGQGTTVTVSS
VL: DIQMTQSPSSLSASVGDRVTITCKASQNVGTNVAWYQQKPGKSPKALIYSASYRYSGVPSRFSGSGSGTDFTLTISSLQPEDVATYHCQQYNFYPYTFGQGTKLEIKR
Consider B6, for which the 50% effective concentration (EC50) with human CGRP amounted to 1.41 nM; with rat CGRP, 4.32 nM.

B7: C9H1L1 (antibody, human IgG1, kappa, V domains shown)
VH: EVQLVQSGAEVKKPGASVKVSCKASGYTFTDYYMNWVRQAPGQRLEWMGVINPYNVRTTYNRKFKGRVTITVDKSASTAYMELSSLRSEDTAVYYCASLLIRPHYFDYWGQGTTVTVSS
VL: DIQMTQSPSSLSASVGDRVTITCKASQNVGTNVAWYQQKPGKSPKALIYSASYRYSGVPSRFSGSGSGTDFTLTISSLQPEDVATYHCQQYNFYPYTFGQGTKLEIKR
Turning to B7, the results for the EC50 in the test with human CGRP and in the test with rat CGRP were 1.58 nM and 5.3 nM, respectively.

B8: C9H4L1 (antibody, human IgG1, kappa, V domains shown)
VH: EVQLVQSGAEVKKPGASVKVSCKASGYTFTDYYMNWVRQAPGQRLEWIGVINPYQGRTTYNRKFKGRATLTVDKSASTAYMELSSLRSEDTAVYYCASLLIRPHYFDYWGQGTTVTVSS
VL: DIQMTQSPSSLSASVGDRVTITCKASQNVGTNVAWYQQKPGKSPKALIYSASYRYSGVPSRFSGSGSGTDFTLTISSLQPEDVATYHCQQYNFYPYTFGQGTKLEIKR
With B8, the EC50 is 1.25 nM with human CGRP and 4.2 nM in the test with rat CGRP.
